Reference: US20020123056

Tests used:
[1] = biological target: PDK1 peptide (PDKtide) …
[2] = biological target: T1, PKB-sub peptide (GSK3 consensus peptide) CKRPRAASFAE
T1 chain: CKRPRAASFAE

B1: GST-SGK2 fusion protein (human SGK2 with N-terminal Glutathione S-transferase tag, expressed in Hi5 insect cells) (protein)
chain: MNSSPAGTPSPQPSRANGNINLGPSANPNAQPTDFDFLKVIGKGNYGKVLLAKRKSDGAFYAVKVLQKKSILKKKEQSHIMAERSVLLKNVRHPFLVGLRYSFQTPEKLYFVLDYVNGGELFFHLQRERRFLEPRARFYAAEVASAIGYLHSLNIIYRDLKPENILLDCQGHVVLTDFGLCKEGVEPEDTTSTFCGTPEYLAPEVLRKEPYDRAVDWWCLGAVLYEMLHGLPPFYSQDVSQMYENILHQPLQIPGGRTVAACDLLQSLLHKDQRQRLGSKADFLEIKNHVFFSPINWDDLYHKRLTPPFNPNVTGPADLKHFDPEFTQEAVSKSIGCTPDTVASSSGASSAFLGFSYAPEDDDILDC
**Q.** Which “in vitro kinase assay, 32P incorporation into peptide (purified SGK2)” value [1] does the source give for B1 here?
**A.** The value was “addition of same amount of control peptide (PDK1 peptide) had no significant incorporation”.

**Q.** And the “in vitro kinase assay, 32P incorporation into peptide (purified SGK2)” value [2]?
**A.** Its value is “PKB-sub had significant incorporation of ^32P”.

**Q.** What about the “in vitro kinase assay, PDK1-activated versus non-activated SGK2” value [2] of the same protein?
**A.** Its value is “the PDK1 activated SGK2 had significantly higher kinase activity compared to non-activated SGK2”.
